The text below walks through data of patent CN110713539A.

Usually Kd stands for the free concentration of one partner at which half of the binding sites on the other are occupied at equilibrium, for simple one-to-one binding. The low end stands for tighter binding, the high end for weaker binding. By koff is commonly meant the rate constant with which the complex falls apart. Read a low koff as a long-lived complex. The term kon denotes the second-order rate constant of association. The low end stands for slow association, the high end for fast association.

The target in this assay is CEA抗原 (癌胚抗原, Carcinoembrynio Antigen), soluble antigen (UniProt P06731). The experiment in a line: SPR (Biacore), antibody immobilised on chip, antigen in solution, 1:1 binding.
UniProt P06731, sequence (P06731 35-685 limits assumed): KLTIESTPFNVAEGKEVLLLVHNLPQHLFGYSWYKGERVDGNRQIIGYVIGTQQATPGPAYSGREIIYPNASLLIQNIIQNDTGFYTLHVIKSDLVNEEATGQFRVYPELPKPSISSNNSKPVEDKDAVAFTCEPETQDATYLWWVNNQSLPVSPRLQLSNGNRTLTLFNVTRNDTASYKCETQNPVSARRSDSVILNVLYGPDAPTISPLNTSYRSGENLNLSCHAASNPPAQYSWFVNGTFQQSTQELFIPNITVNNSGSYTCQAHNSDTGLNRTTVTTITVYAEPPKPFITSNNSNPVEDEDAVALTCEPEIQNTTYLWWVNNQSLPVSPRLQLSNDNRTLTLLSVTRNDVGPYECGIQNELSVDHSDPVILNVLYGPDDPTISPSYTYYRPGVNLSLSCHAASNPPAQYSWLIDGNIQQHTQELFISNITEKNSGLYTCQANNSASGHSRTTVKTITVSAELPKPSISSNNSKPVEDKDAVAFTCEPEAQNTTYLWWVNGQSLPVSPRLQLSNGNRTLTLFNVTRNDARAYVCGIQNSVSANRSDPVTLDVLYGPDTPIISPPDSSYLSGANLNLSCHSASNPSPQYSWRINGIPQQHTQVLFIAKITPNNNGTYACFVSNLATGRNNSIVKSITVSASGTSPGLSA

B1: OLD-2ND-3-H6-scFv-mIgG1 (Fc fusion, part only; not given: linker and mouse Fc tag, not shown: a dimerising Fc or GST)
chain, part: ETTLTQSPGTLSLSPGERATLSCRASQSVNNNFLGWYQQRVGQAPRLLIYGASSRATGIPDRFSGSGSGTDFTLTISRLEPEDFAVYYCQQYGSSPLTFGGGTKVEIKMAQVQLQESGGGSVQPGGSLRLSCAASGFTFSSYAMSWVRQAPGKGLEWVSHISGSGGNTYYADSVKGRFTISRDNSKNTLYLQMNSLRAEDTAVYYCAKSWGSSNYGTFDIWGQGTVVTVSS
For the molecule B1, the Kd turned out to be 43.1 nM, the koff was 0.0111 s⁻¹ and the kon is 259000 M⁻¹ s⁻¹.
